The values that follow come from article PMC3406662 (The Journal of Biological Chemistry, 2012).

This series concerns the molecule itself. Kind of series: AUC.

B1: His6-Dma1(187–end) (domain or fragment, S. pombe, UniProt Q10322 187-267, looked up)
chain: SGPPECCICLMPVLPCQALFVAPCSHSYHYKCIRPTLNESHPYFSCFICRKYHDLEAPVEEGDESLNDLLRNATVKDDASE
As a reminder, the stoichiometry N is a count of units in the complex or per binding partner. In the case of B1, the “stoichiometry N” value was 2.
